From the supplement of paper PMC10567573

B1: ZNF277 (parent)
chain: ILREELQKQRLREILEQQQQERND

Variants of: B1
Assay: protein stability index of a GFP-peptide fusion (GPS, HEK-293T) (PSI 1-6); higher = more stable
Settings: c terminus: a fixed tail appended
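Further: lentivirally expressed fusions sorted by FACS into six bins by GFP to DsRed ratio, PSI derived from sequencing read proportions per bin multiplied by bin number.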

Row | Variant | protein stability index
1 | ILREELQKQRLREILDQQQQERND [E16D] | 4.61
2 | ILREELQFQRLREILEQQQQERND [K8F] | 4.38
3 | ILREELQKQRLREILEQQQQKRND [E21K] | 4.26
4 | ILREELQKQRLLEILEQQQQERND [R12L] | 4.36
5 | SLREELQKQRLREILEQQQQERND [I1S] | 5.12
6 | ILREELQKQRLRETLEQQQQERND [I14T] | 4.84
7 | ILREELQKQRLREILEQQQQECND [R22C] | 4.48
8 | ILREETQKQRLREILEQQQQERND [L6T] | 4.75
9 | ILREEHQKQRLREILEQQQQERND [L6H] | 4.59
10 | ILREELQKQRLREILEQQQQGRND [E21G] | 4.04
11 | ILREELQKQPLREILEQQQQERND [R10P] | 4.83
12 | ALREELQKQRLREILEQQQQERND [I1A] | 4.59
13 | ILREELQKQRLREILEQQQVERND [Q20V] | 3.74
14 | ILREELQKQRLREILEQQQQLRND [E21L] | 3.52
15 | ILREELQKQRLREILEEQQQERND [Q17E] | 4.82
16 | ILREWLQKQRLREILEQQQQERND [E5W] | 2.84
17 | IVREELQKQRLREILEQQQQERND [L2V] | 4.73
18 | ILREELQKQRLRGILEQQQQERND [E13G] | 4.54
19 | FLREELQKQRLREILEQQQQERND [I1F] | 4.43
20 | ILREELQKQRLREILEQQQQERNF [D24F] | 3.26
21 | ILREELQKQRLREINEQQQQERND [L15N] | 4.32
22 | ILREQLQKQRLREILEQQQQERND [E5Q] | 4.17
23 | ILNEELQKQRLREILEQQQQERND [R3N] | 4.37
24 | ILREELQKQRLREILEQQQAERND [Q20A] | 4.93

Row | Variant | protein stability index
25 | ILREELQKQRLREIIEQQQQERND [L15I] | 4.48
26 | ILREELAKQRLREILEQQQQERND [Q7A] | 4.12
27 | IHREELQKQRLREILEQQQQERND [L2H] | 5.24
28 | ILREELQKQRLREILEQQQQWRND [E21W] | 2.95
29 | ILKEELQKQRLREILEQQQQERND [R3K] | 4.64
30 | HLREELQKQRLREILEQQQQERND [I1H] | 4.89
31 | ILREELQKQRWREILEQQQQERND [L11W] | 3.94
32 | ILREELQKQRLREILEQQQLERND [Q20L] | 4.05
33 | ILREEGQKQRLREILEQQQQERND [L6G] | 4.9
34 | ICREELQKQRLREILEQQQQERND [L2C] | 3.94
35 | ILREELQKQRLREILEQQQQERNH [D24H] | 3.16
36 | ILREEAQKQRLREILEQQQQERND [L6A] | 4.4
37 | ILREKLQKQRLREILEQQQQERND [E5K] | 4.51
38 | ILREGLQKQRLREILEQQQQERND [E5G] | 5.27
39 | ILREELQKQRLREILEGQQQERND [Q17G] | 4.25
40 | ILREELQKQRLREILEQQQQELND [R22L] | 4.46
41 | ILREELQKQRLREIFEQQQQERND [L15F] | 4.22
42 | ILREELQKQRLREILEQQPQERND [Q19P] | 4.29
43 | ILREELQKQRLREILNQQQQERND [E16N] | 3.89
44 | ILREELQKRRLREILEQQQQERND [Q9R] | 4.41
45 | ILREELQDQRLREILEQQQQERND [K8D] | 4.43
46 | ILREELQKQDLREILEQQQQERND [R10D] | 5.47
47 | ILREELQKQYLREILEQQQQERND [R10Y] | 4.3
48 | ILREELQKQRLREILEQQQQERFD [N23F] | 3.73

Row | Variant | protein stability index
49 | IIREELQKQRLREILEQQQQERND [L2I] | 4.41
50 | ILREELQKQRLREILEQGQQERND [Q18G] | 4.57
51 | ILREELQKQRLREILEQQVQERND [Q19V] | 4.44
52 | ILREELQKQRLREILEQQTQERND [Q19T] | 3.64
53 | ILREELQKQRLREHLEQQQQERND [I14H] | 3.89
54 | ILREELQKQRLREILEQQQQERNV [D24V] | 4.05
55 | ILREELDKQRLREILEQQQQERND [Q7D] | 4.26
56 | ILREELQKERLREILEQQQQERND [Q9E] | 3.04
57 | ILREELQKQRLREILEQQQQERNK [D24K] | 3.83
58 | ILRAELQKQRLREILEQQQQERND [E4A] | 3.85
59 | ILREELQKQRLVEILEQQQQERND [R12V] | 4.41
60 | ILREELQKQRLREILEQQYQERND [Q19Y] | 3.98
61 | ILLEELQKQRLREILEQQQQERND [R3L] | 2.82
62 | ILREEPQKQRLREILEQQQQERND [L6P] | 5.5
63 | ILREELQKQRLREILEQQQFERND [Q20F] | 3.44
64 | ILPEELQKQRLREILEQQQQERND [R3P] | 5.31
65 | ILREFLQKQRLREILEQQQQERND [E5F] | 2.35
66 | ILREELQKQRQREILEQQQQERND [L11Q] | 5.05
67 | ILREELQKQRLREILEQQQQIRND [E21I] | 2.94
68 | ILREEFQKQRLREILEQQQQERND [L6F] | 4.49
69 | ILREELQKQRLREILEQQQQERNM [D24M] | 4.14
70 | ILREELQKQRLREILEQQQQEQND [R22Q] | 4.44
71 | ILRPELQKQRLREILEQQQQERND [E4P] | 4.95
72 | NLREELQKQRLREILEQQQQERND [I1N] | 4.99

Row | Variant | protein stability index
73 | ILREELQKQRLREILEQQQQEVND [R22V] | 3.53
74 | ILREELQKQRLPEILEQQQQERND [R12P] | 4.78
75 | ILREELQTQRLREILEQQQQERND [K8T] | 4
76 | ILTEELQKQRLREILEQQQQERND [R3T] | 4.36
77 | ILREELQKQRLREILEQQQQVRND [E21V] | 3.2
78 | ILREELQKQRLREILEQQQWERND [Q20W] | 3.18
79 | IRREELQKQRLREILEQQQQERND [L2R] | 5.03
80 | ILREELQKQRLREILEQQQQTRND [E21T] | 4.09
81 | ILRDELQKQRLREILEQQQQERND [E4D] | 4.06
82 | ILREELQKQRLREILESQQQERND [Q17S] | 4.63
83 | ILRVELQKQRLREILEQQQQERND [E4V] | 3.88
84 | ILREELQKQRLREILEQQQIERND [Q20I] | 4.36
85 | ILREELQKQRLREILWQQQQERND [E16W] | 2.87
86 | YLREELQKQRLREILEQQQQERND [I1Y] | 4.75
87 | ILREEKQKQRLREILEQQQQERND [L6K] | 4.96
88 | ILREELQKQRLREILETQQQERND [Q17T] | 4.16
89 | ILREELQKQRLREITEQQQQERND [L15T] | 4.67
90 | ILREELQNQRLREILEQQQQERND [K8N] | 4.53
91 | ILREELQKQRLREILEQQQQETND [R22T] | 4.76
92 | ILREELQKQRLREILEQFQQERND [Q18F] | 4.37
93 | ILREELQKQRLREILEQQQQEEND [R22E] | 4.61
94 | ILSEELQKQRLREILEQQQQERND [R3S] | 4.96
